Results from article PMC4132065 (2014).

B1: LexA BD-Pxa2_NBD-CT [S. cerevisiae] / Gal4 AD-Pxa1_NBD [S. cerevisiae] (parent complex)
chain 1: GNDMTADFITNRRLLVTASSSIGRFVELKRNIQQLRGIRLRLNKFNDLLDANKGDDEKEPRDERCIVEYDDSRIKFENIPLITPANQVLVPELSFDLKHGNHLLIIGPNGCGKSSLFRILGGLWPIRATPNKNHQSKLIMPRRTVDRDCAIFYLPQRPYMGNRSTFREQIIYPDSIEQFKERYHNDYDLGDADLIKILQLLDLEDLVTENMSLLLAQRTSKNDSQQLSTEDNQSPCAIKVRDAFSIVRNWSEELTIGVQQRLAMARMYYHKPKFAVLDECTSAVAPEMEQRMYENAQNFGISLISVCHRTSLWHFHNYLLKFDGKGGYQFGPFNPKERLCNEEKLLELNAILDQQVPLWERKLKDLTIAKESNIIRKSETNLNLFEKIEDPKTSKSNALFNANKGQRITSPTGQETSKRLPLFSQPSSSASSNLLRNNKSLNKKVKTKKEEGKER
chain 2: SRLMHSIKDISQLTGYTNRIFTLLSVLHRVHSLNFNYGAVPSILSIRTEDASRNSNLLPTTDNSQDAIRGTIQRNFNGIRLENIDVIIPSVRASEGIKLINKLTFQIPLHIDPITSKSNSIQDLSKANDIKLPFLQGSGSSLLILGPNGCGKSSIQRIIAEIWPVYNKNGLLSIPSENNIFFIPQKPYFSRGGTLRDQIIYPMSSDEFFDRGFRDKELVQILVEVKLDYLLKRGVGLTYLDAIADWKDLLSGGEKQRVNFARIMFHKPLYVVLDE
B2: LexA BD-Pxa2_NBD-CT [S. cerevisiae] / Gal4 AD-Pxa1_NBD-CT [S. cerevisiae] (parent complex)
chain 1: B1 chain 1
chain 2: SRLMHSIKDISQLTGYTNRIFTLLSVLHRVHSLNFNYGAVPSILSIRTEDASRNSNLLPTTDNSQDAIRGTIQRNFNGIRLENIDVIIPSVRASEGIKLINKLTFQIPLHIDPITSKSNSIQDLSKANDIKLPFLQGSGSSLLILGPNGCGKSSIQRIIAEIWPVYNKNGLLSIPSENNIFFIPQKPYFSRGGTLRDQIIYPMSSDEFFDRGFRDKELVQILVEVKLDYLLKRGVGLTYLDAIADWKDLLSGGEKQRVNFARIMFHKPLYVVLDEATNAISVDMEDYLFNLLKRYRFNFISISQRPTLIKYHEMLLEIGENRDGKWQLQAVGTDEAITSIDNEIEELERKLERVKGWEDERTKLREKLEII

Variants of: B1
Test: yeast two-hybrid, quantified with Yeast β-Galactosidase Assay Kit (Thermo); n = 3; parent: 185; read off a plot

response | Variant
~17 | chain 1 GNDMTADFITNRRLLVTASSSIGRFVELKRNIQQLRGIRLRLNKFNDLLDANKGDDEKEPRDERCIVEYDDSRIKFENIPLITPANQVLVPELSFDLKHGNHLLIIGPNGCGKSSLFRILGGLWPIRATPNKNHQSKLIMPRRTVDRDCAIFYLPQRPYMGNRSTFREQIIYPDSIEQFKERYHNDYDLGDADLIKILQLLDLEDLVTENMSLLLAQRTSKNDSQQLSTEDNQSPCAIKVRDAFSIVRNWSEELTIGVQQRLAMARMYYHKPKFAVLDECTSAVAPEMEQRMYENAQNFGISLISVCHRTSLWHFHNYLLKFDGKGGLQFGPFNPKERLCNEEKLLELNAILDQQVPLWERKLKDLTIAKESNIIRKSETNLNLFEKIEDPKTSKSNALFNANKGQRITSPTGQETSKRLPLFSQPSSSASSNLLRNNKSLNKKVKTKKEEGKER [chain 1 Y328L]
~41 | chain 1 GNDMTADFITNRRLLVTASSSIGRFVELKRNIQQLRGIRLRLNKFNDLLDANKGDDEKEPRDERCIVEYDDSRIKFENIPLITPANQVLVPELSFDLKHGNHLLIIGPNGCGKSSLFRILGGLWPIRATPNKNHQSKLIMPRRTVDRDCAIFYLPQRPYMGNRSTFREQIIYPDSIEQFKERYHNDYDLGDADLIKILQLLDLEDLVTENMSLLLAQRTSKNDSQQLSTEDNQSPCAIKVRDAFSIVRNWSEELTIGVQQRLAMARMYYHKPKFAVLDECTSAVAPEMEQRMYENAQNFGISLISVCHRTSLWHFHNYLLKFDGKGGYQFGPANPKERLCNEEKLLELNAILDQQVPLWERKLKDLTIAKESNIIRKSETNLNLFEKIEDPKTSKSNALFNANKGQRITSPTGQETSKRLPLFSQPSSSASSNLLRNNKSLNKKVKTKKEEGKER [chain 1 F333A]

Variants of: B2
Test: yeast two-hybrid, quantified with Yeast β-Galactosidase Assay Kit (Thermo); n = 3; parent: 190; read off a plot

response | Variant
~69 | chain 1 GNDMTADFITNRRLLVTASSSIGRFVELKRNIQQLRGIRLRLNKFNDLLDANKGDDEKEPRDERCIVEYDDSRIKFENIPLITPANQVLVPELSFDLKHGNHLLIIGPNGCGKSSLFRILGGLWPIRATPNKNHQSKLIMPRRTVDRDCAIFYLPQRPYMGNRSTFREQIIYPDSIEQFKERYHNDYDLGDADLIKILQLLDLEDLVTENMSLLLAQRTSKNDSQQLSTEDNQSPCAIKVRDAFSIVRNWSEELTIGVQQRLAMARMYYHKPKFAVLDECTSAVAPEMEQRMYENAQNFGISLISVCHRTSLWHFHNYLLKFDGKGGYQFGPANPKERLCNEEKLLELNAILDQQVPLWERKLKDLTIAKESNIIRKSETNLNLFEKIEDPKTSKSNALFNANKGQRITSPTGQETSKRLPLFSQPSSSASSNLLRNNKSLNKKVKTKKEEGKER [chain 1 F333A]
~38 | chain 1 GNDMTADFITNRRLLVTASSSIGRFVELKRNIQQLRGIRLRLNKFNDLLDANKGDDEKEPRDERCIVEYDDSRIKFENIPLITPANQVLVPELSFDLKHGNHLLIIGPNGCGKSSLFRILGGLWPIRATPNKNHQSKLIMPRRTVDRDCAIFYLPQRPYMGNRSTFREQIIYPDSIEQFKERYHNDYDLGDADLIKILQLLDLEDLVTENMSLLLAQRTSKNDSQQLSTEDNQSPCAIKVRDAFSIVRNWSEELTIGVQQRLAMARMYYHKPKFAVLDECTSAVAPEMEQRMYENAQNFGISLISVCHRTSLWHFHNYLLKFDGKGGLQFGPFNPKERLCNEEKLLELNAILDQQVPLWERKLKDLTIAKESNIIRKSETNLNLFEKIEDPKTSKSNALFNANKGQRITSPTGQETSKRLPLFSQPSSSASSNLLRNNKSLNKKVKTKKEEGKER [chain 1 Y328L]
